Data as given in the supplement of paper PMC9170038.

Tested on: MS2 coat protein
Assay: apparent KD of MS2 coat protein; designed switch direction (-1 OFF switch, 1 ON switch): -1; higher = weaker reporter binding
Summary of the method: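 On Illumina chips, designed RNA switches with common flanks were made by stalled E. coli RNA polymerase. Titrations with SNAP-549-labelled MS2 coat protein, doubling from 0.7 or 1.5 nM to 3 µM, were done with no input, with 200 uM small-molecule ligand, or with an oligonucleotide input. Apparent KD is the median per design over clusters, from curve fits of normalised cluster fluorescence.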

[1] = input ligand: microRNA oligo, concentration not stated
[2] = Eterna round: R95, input ligand: FMN 200 uM
[3] = Eterna round: R95, input ligand: microRNA oligo, concentration not stated
[4] = Eterna round: R95, input ligand: none

Row | Sequence | apparent KD of MS2 coat protein (input ligand: FMN 200 uM) | apparent KD of MS2 coat protein [1] | apparent KD of MS2 coat protein (input ligand: none) | apparent KD of MS2 coat protein [2] | apparent KD of MS2 coat protein [3] | apparent KD of MS2 coat protein [4]
1 | CUAAAUCAUGUAGGAUAUGCGUGGCGAAGCUAUGCAGAAGGACAUGAGGAUCACCCAUGUGCUUCCGUCUGCGUACAGACGGAA [JL ENG1 1.17] (Eterna round: R96, puzzle: Exclusion NG 1) | 328 nM | 222 nM | 255 nM | – | – | –
2 | CUAACAUGCUGGUGAUCAUACAUGAGGAUCACCCAUGUAACAAGCUUUUUGUUCGUCUUAAUUUAAUUGAUUACUAG [Stov1/8-B3] (Eterna round: R97, puzzle: Sensor, turn-off variant 1) | 177 nM | – | 254 nM | – | – | –
3 | CUAAUACAUCAGGAUAUGAUAGCCUAUAGCAUAUCAGAAGGGAUGACAUGAGGAUCACCCAUGUCAAAGGGUGA [eternacac ex6r4 sub19] (Eterna round: R97, puzzle: Exclusion 6) | 396 nM | – | 444 nM | – | – | –
4 | CUAGAUCUUCGGAUCUAGUACAUGAGGAUCACCCAUGUGACGAGUUACAUGAAAAACAAGCUUUUUGCUCGUCUUAU [Sensor v3 - Turn-off variant 1 - 8] (puzzle: Sensor v3, turn-off variant 1) | – | – | – | 41.6 nM | 102 nM | 46.6 nM
5 | CUAGCGAAUGUAGGAUAUCGGACUGUUUCAGUCUGAGAAGGACAUGAGGAUCACCCAUGUAUAGCUACGUGAGUAGCUCGCUAG [JL ENG1 3.91] (Eterna round: R96, puzzle: Exclusion NG 1) | 43.6 nM | 13 nM | 17.1 nM | – | – | –
6 | CUAGUCCGAGGAUAUAUAUUGUGAAACAUGAGGAUCACCCAUGUUAUAAUAUGGAAAUAAAUAGAAGGCGGACUAG [Mat - Exclusion 5 - JL mod - D57] (puzzle: Exclusion 5) | – | – | – | 23.3 nM | 38.5 nM | 18.8 nM
7 | CUAGUCCGAGGAUAUAUUAUGUGAAACAUGAGGAUCACCCAUGUUAUAUGAUGGAUGAAAAUAGAAGGCGGACUAG [Mat - Exclusion 5 - JL mod - D61] (puzzle: Exclusion 5) | – | – | – | 20.4 nM | 72.8 nM | 88.1 nM
8 | CUAGUCCGAGGAUAUAUUAUGUGAUACAUGAGGAUCACCCAUGUUAUAUGAUGGAUGUUAAUAGAAGGCGGACUAG [Mat - Exclusion 5 - JL mod - D72] (puzzle: Exclusion 5) | – | – | – | 246 nM | 118 nM | 110 nM
9 | CUAUAGUAUGUAGGAUAUCGGUCAGUUUCUGAUCGAGAAGGACAUGAGGAUCACCCAUGUAAGGCUACCGGUUUCUGGUGGCCG [JL ENG1 3.54] (Eterna round: R96, puzzle: Exclusion NG 1) | 61.6 nM | 18.5 nM | 23.6 nM | – | – | –
10 | CUAUUCCGAGGAUAUACAUGAGGAUCACCCAUGUCGGGCCUCCGCGUUUAGCGCCUCAGUAGAAGGCGGGUUUC [JL Riri mod 2] (puzzle: Exclusion 3) | – | – | – | – | 17.2 nM | –
11 | CUCAGUGGUGAGGAUAUGCGCGCCCAAUGGACGGUAGAAGGUACUACAUGAGGAUCACCCAUGUAGCGAAGAUU [Eternabot (L1) Solution 49] (Eterna round: R97, puzzle: Exclusion 6) | 15.9 nM | – | 15.8 nM | – | – | –
12 | CUCCGGCCUGUAGGAUAUGGAUCCGAUUAGGAUCCAGAAGGACAUGAGGAUCACCCAUGUACAUGUAAACAGUCAUCACCGGAC [salish99_ExNG1_r04_203] (Eterna round: R96, puzzle: Exclusion NG 1) | 23.8 nM | 15.2 nM | 16.7 nM | – | – | –
13 | CUCCGGCGUGUAGGAUAUGGUUCCGUUUCGGUUCCAGAAGGACAUGAGGAUCACCCAUGUACCUGUCGUCGGUCGUCACCGGGC [salish99_ExNG1_r04_216] (Eterna round: R96, puzzle: Exclusion NG 1) | 12.4 nM | 13.2 nM | 16.4 nM | – | – | –
14 | CUCGUGCAGCAAAGCUGUACGAGUACAUGAGGAUCACCCAUGUAGGAUAUGGUACGCUUUGCGUGCUAGAAGGAUAUGUGUAGG [Mat - Exclusion NG 3 - Mod of JL - D86] (Eterna round: R96, puzzle: Exclusion NG 3) | 37.5 nM | 24.1 nM | 36.1 nM | – | – | –
15 | CUCGUGCAGCUUUGCUGUACGAGUACAUGAGGAUCACCCAUGUAGGAUAUGGUACGCUUUGCGUGCCAGAAGGACGUGUGUUUG [JL EXNG3 1.40] (Eterna round: R96, puzzle: Exclusion NG 3) | 221 nM | 27.6 nM | 39.4 nM | – | – | –
16 | CUCGUGUAAGGAUAUACGAGUCACGGAAAUAAAACGUGAAGGUAGAAGGUACAUGAGGAUCACCCAUGUAAAAC [Mod of Anonveat 2 - Jieux - Exclusion 4] (Eterna round: R97, puzzle: Exclusion 4) | 209 nM | – | 29.8 nM | – | – | –
17 | CUCUUGGCAGGAUAUGCUCUUUUAGACAUGAGGAUCACCCAUGUGCUCAUUCCUUCUUUUGCAGAAGGGCCUUAAC [JR_E5_Sub048] (puzzle: Exclusion 5) | – | – | – | – | 63.8 nM | –
18 | CUCUUGUGAGGAUAUCAGGUGUGCUAGCGUACUGGUACAUCUGAGAAGGCACAUGAGGAUCACCCAUGUUUCUU [JL-ex4-3.21 Brourd mod] (puzzle: Exclusion 4) | – | – | – | – | 78.1 nM | –
19 | CUCUUGUUAGGAUAUCAAACCGGCAGCGGAGCCGCCGGAAGUGAGAAGGGACAUGAGGAUCACCCAUGUAAGAA [Quatdior] (puzzle: Exclusion 4) | – | – | – | – | 58.9 nM | –
20 | CUGAACCCGGUAGGAUAUAUUGUGGGCAAACAUGGAACAACAUGAGGAUCACCCAUGUAAUUUAGGUAGAAGGGCCAAAAGAUU [Excl-NG2-LRO07] (Eterna round: R96, puzzle: Exclusion NG 2) | 77.9 nM | 50.4 nM | 74.2 nM | – | – | –
21 | CUGAGAAUAGGAUAUACUAACAAUGGAGUAGCUUCACGUCAACAUGAGGAUCACCCAUGUAGAAGGGUUAGCGG [Eternabot (L1) Solution 33] (Eterna round: R97, puzzle: Exclusion 2) | 25 nM | – | 30 nM | – | – | –
22 | CUGAGCAGACGGAGAUCCAACAUGAGGAUCACCCAUGUCUCAAAAGCUUAUUGCUCGUCUUAUCCUCCUCUGUUCAC [Mat - Sensor, turn-off var - Eli Mod - D54] (Eterna round: R97, puzzle: Sensor, turn-off variant 1) | 26.9 nM | – | 26.7 nM | – | – | –
23 | CUGAGCAGACGGAGAUCCAACAUGAGGAUCACCCAUGUCUCAAAAGCUUUUUGCUCGCCUUAUCCUCCUCUGUUCUC [Ererququce] (puzzle: Sensor v3, turn-off variant 1) | – | – | – | 34.8 nM | 208 nM | 36.6 nM
24 | CUGAGCAGACGGAGAUCCAACAUGAGGAUCACCCAUGUCUCAAAAGCUUUUUGCUUGUCUUACCCUCCUCUGUUCUC [Isceeren] (puzzle: Sensor v3, turn-off variant 1) | – | – | – | 18.1 nM | 122 nM | 15.7 nM
25 | CUGAGCAGACGGAGAUCCAACAUGAGGAUCACCCAUGUCUCAUAAGCUUUUUGCUCAUCUUAUUGUACCUUGGUGCU [JL ViennaUCT Edcesobi mod 3] (puzzle: Sensor v3, turn-off variant 1) | – | – | – | 275 nM | 14.4 nM | 323 nM
26 | CUGAGUAGAGGAUAUACAUGAGGAUCACCCAUGUAAAGUAGCUUGCGUACAGGCAGAUGUAGAAGGUUAUUCGG [Mod of JL 13 - Jieux - Exclusion 3] (Eterna round: R97, puzzle: Exclusion 3) | 53.1 nM | – | 50.9 nM | – | – | –
27 | CUGAUGUCAGGAUAUCAGAAAAGGCGCAAGGACACGCCAAAUGAGAAGGGACAUGAGGAUCACCCAUGUAAAAC [Orata] (puzzle: Exclusion 4) | – | – | – | 107 nM | 20.8 nM | 18.1 nM
28 | CUGAUGUUAGGAUAUCAGGCGCCCGCCACUGGCAAAGCGCAUGAGAAGGGACAUGAGGAUCACCCAUGUAGUAA [Ussoisrebe] (puzzle: Exclusion 4) | – | – | – | – | 27.7 nM | –
29 | CUGCUCCGUGUAGGAUAUGCAUACAACCAAUAUGCAGAAGGACAUGAGGAUCACCCAUGUAUGUUAUUAUCACGUGAAGCGUCC [Design 20] (Eterna round: R96, puzzle: Exclusion NG 1) | – | 16.8 nM | – | – | – | –
30 | CUGCUCCGUGUAGGAUAUGCAUACUCCCAUUAUGCAGAAGGACAUGAGGAUCACCCAUGUAUGUUAUUAUCAUGUGUUGCGUAC [Design 13] (Eterna round: R96, puzzle: Exclusion NG 1) | 250 nM | 29.5 nM | 38.5 nM | – | – | –
